Assay: yeast display, Sf9 membrane polyspecificity reagent, FACS + sequencing; frameworks hold sequencing errors
Procedure, shortened: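 A synthetic nanobody library was expressed on Saccharomyces cerevisiae BJ5465 by galactose induction for 36–48 hours. The library was stained for 1 hour at 4 °C with 10% biotinylated, detergent-solubilized Sf9 membrane reagent and enriched with streptavidin microbeads before FACS. Low and high (top ~1%) gates were set on anti-HA fluorescence for expression and streptavidin fluorescence for reagent binding, and each polyreactivity label reflects the gate of origin.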

Row | Sequence | polyreactivity (PSR sort gate)
1 | QVQLVESGGGLVQAGGSLRLSCAASGIIFVFNAMGWYRQAPGKERELVAVISTSGDSTYYADSVKGRFTISRDNAKNTVYLQMNSLKPEDTAVYYCAADQRVTYRRGRAYDKYYYWGQGTQVTVSS | low polyreactivity
2 | QVQLVESGGGLVQAGGSLRLSCAASGIIFVGNAMGWYRQAPGKERELVASINSGGSTYYADSVKGRFTISRDNAKNTVYLPMNSLKPEDTAVYYCAVEEARYYYDDYDYWGQGTQVTVSS | low polyreactivity
3 | QVQLVESGGGLVQAGGSLRLSCAASGIIFVINAMGWYRQAPGKERELVATITGSGTTNYADSVKGRFTISRDNAKNTVYLHMNSLKPEDTAVYYCARDDTEYARTGAYDYWGQGTQVTVSS | low polyreactivity
4 | QVQLVESGGGLVQAGGSLRLSCAASGIIFVLYTMGWYIQAPGKERELVATINWGGGNTYYADSVKGRFTISRDNAKNTVYFQMNSLKPEDTAVYYCAAAYTWYGYSQAYYYWGQGTQVTVSS | low polyreactivity
5 | QVQLVESGGGLVQAGGSLRLSCAASGIIFVTNDMGWYRQAPGKERELVATITWSGGSTYYADSVKGRFTISRDNAKNTVYLQMNSLKPEDSAVYYCAAESRYTWIHSRDYWGQGTQVTVSS | low polyreactivity
6 | QVQLVESGGGLVQAGGSLRLSCAASGIIFVVYDMGWYRQAPGKERELVAAINWSGGSTYYADSVKGRFTISRDNAKNTVYLQMNSLKPEDTAVYYCAAESFSDGSPYNYWGQGTQVTVSS | low polyreactivity
7 | QVQLVESGGGLVQAGGSLRLSCAASGIIFVYNAMGWYRPAPGKARELVAAINWRGDGTYYADSVKGRFTISRDNAKNTVYLQMNCLKPEDTAVYYCNAVRFRPNSHYRPVGYDYWGQGTQVTVSS | low polyreactivity
8 | QVQLVESGGGLVQAGGSLRLSCAASGIIFVYYAMGWYRQAPGKERELVAAISTGGTRTYYADSVKGRFTISRDNAKNTVYLQMNSLKPEDTAVYYCNARGRYRKSERRAFDYWGQGTQVTVSS | high polyreactivity
9 | QVQLVESGGGLVQAGGSLRLSCAASGIIFVYYAMGWYRQAPGKERELVAAISTRGGSTYYADSVKGRFTISRDNAKNTVYLQMNSLKPEDTAVYYCAATYVYRYVPRIPSEAYDYWGQGTQVTVSS | high polyreactivity
10 | QVQLVESGGGLVQAGGSLRLSCAASGIIFWYYAMGWYRQAPGKDRELVARITTAGITNYADSVKGRFTISRDNAKNTVYLQMNSLKPEDTAVYYCAADTYWHYRGPGYDYWGQGTQVTVAS | low polyreactivity
11 | QVQLVESGGGLVQAGGSLRLSCAASGIIFYDYAMGGYREAPGKERELVATITRGGGTKYADSVKGRFTISRDNAKNTVYLQMNSLKPEDTAVYYCAADSHGVYEGDYCGQGTQVTVSS | low polyreactivity
12 | QVQLVESGGGLVQAGGSLRLSCAASGIIFYDYAMGWYRPAPGKERELVAAINYSGGSTYYADSVKGRFTISRDNAKNTVYLQMNSLKPEDTAVYYCAADNAVWEYDYWGQGSQVTVSS | low polyreactivity
13 | QVQLVESGGGLVQAGGSLRLSCAASGIIFYDYAMGWYRQAPGKERELVAAISGSGGSTYYADSVKGRFTISRDNAKNTVYLQMNSLKPEDTAVYYCAARFTRQMYYWGQGTQVTVSS | high polyreactivity
14 | QVQLVESGGGLVQAGGSLRLSCAASGIIFYDYAMGWYRQAPGKERELVAAISTDAGSTYYADSVKGRFTISRDNAKNTVYLQMNSLKPEDTAVYYCNADEHSYSVSWDYEYDYWGQGTQVTVSS | high polyreactivity
15 | QVQLVESGGGLVQAGGSLRLSCAASGIIFYDYAMGWYRQAPGKERELVAAITSGGSTNYADSVKGRFTISRDNAKNTVYLQMNSLKPEDTAVYYCAATYWSWISLRFYWGQGTQVTVSS | low polyreactivity
16 | QVQLVESGGGLVQAGGSLRLSCAASGIIFYDYAMGWYRQAPGKERELVAAITSSGGSTYYADSVKGRFTISRDNAKNTVYLQMNRLKPEDTAVYYCAAATRGSGRRYDYWGQGTQVTVSS | high polyreactivity
17 | QVQLVESGGGLVQAGGSLRLSCAASGIIFYFYARGWYRQAPGKETELVAANSRGGSTKYADSVKGRFTISRDNAKNTVYLLMYSLKPEDTAFYYCNARVRGVRQGIMDYWGQGTQVSVSS | high polyreactivity
18 | QVQLVESGGGLVQAGGSLRLSCAASGIIFYGNAMGWYRPAPGKERELVAAISWTTDSTYADSVKGRFTISRDNAKNTVYLQMNSLKPEDTAVYYCNARNGSEFLANDLFTHEYDYWGQGTQVTVSS | low polyreactivity
19 | QVQLVESGGGLVQAGGSLRLSCAASGIIFYGNAMGWYRQAPGKERELVAAISWSGSSTYYADSVKGRFTISRDNAKNTVYLQMNSLKPEDPAVYYCNKATSSVRYLKYYYWGQGTQVTVSS | high polyreactivity
20 | QVQLVESGGGLVQAGGSLRLSCAASGIIFYGYAMGWYRQAPGKERELVAAISRSGGSTYYADSVKGRFTISRDNAKNTVYLQMNSLKPEDTAVYYCAASGVTYDYWGQGTQVTVSS | high polyreactivity
21 | QVQLVESGGGLVQAGGSLRLSCAASGIIFYGYDMGWYRQAPGKERELVAAITWSGGSTYYADSVKGRFTISRDNAKNTVYLQMNSLKPEDTAVYYCNADLDSGYGSYDYWGQGTQVTVSS | low polyreactivity
22 | QVQLVESGGGLVQAGGSLRLSCAASGIIFYHYALGWYRPAPGKERELVAAISRRGGTTYYADSVKGRFTISRDNAKNTVYLQMNSLKPEDTAVYYCAADYGSYGLYRGYYYWGQGTQVTVSS | high polyreactivity

Row | Sequence | polyreactivity (PSR sort gate)
23 | QVQLVESGGGLVQAGGSLRLSCAASGIIFYIYAMGWYRQAPGKERELVAGISWRGGSTSYADSVKGRFTISRDNAKNTVYLQMNSLKPEDTAVYYCAAEVYSWDGYDYWGQGTQVTVSS | low polyreactivity
24 | QVQLVESGGGLVQAGGSLRLSCAASGIIFYIYAMGWYRQAPGKERELVATISNDGGSTYYADSVKGRFTISRDNAKNTVYLQMNSLKPEDTAFFYCNADFADDKNYLFESELEYDYWGQGTQVTVSS | low polyreactivity
25 | QVQLVESGGGLVQAGGSLRLSCAASGIIFYKYSMGWYRQAPGKERELVAAITSGGGRTYYADSVKGRFTISRDNAKITVDLQMNSLKPEDTAVYYCAATRPATYAAYDYWGQGTQVTVSS | high polyreactivity
26 | QVQLVESGGGLVQAGGSLRLSCAASGIIFYLYAMGWYIQAPGKERELVAAISWGGGTTYYADSVKGRFTISRDNAKNTVYLQMNSLKPEDTAVYYCAAETEYYSYRFDYWGQGTQVTVSS | high polyreactivity
27 | QVQLVESGGGLVQAGGSLRLSCAASGIIFYLYAMGWYRQAPGKERELVAAISRRGGSTYYADSVKGRFTISRDNAKNTVYLQMNSLKPEDTAVYYCAATIGTFGYGYWGQGTQVTVSS | high polyreactivity
28 | QVQLVESGGGLVQAGGSLRLSCAASGIIFYLYAMGWYRQAPGKERELVAAITLSGSTTYYADSVKGGFTISRDNAKNTVYLQMNSLKPEDTAVYYCNADTPVRSDYWGQGTQVTVSS | low polyreactivity
29 | QVQLVESGGGLVQAGGSLRLSCAASGIIFYNNAMGWYRKAPGKERELVADITSGNTNYADSVKGRFTISRDNAKNTVYLQMNSLKPEDTAVYYCNAEDDYTYDRSFGGYKYDYWGQGTQVTVSS | low polyreactivity
30 | QVQLVESGGGLVQAGGSLRLSCAASGIIFYPYAMGWYRQAPGKERELVAAISQSGGTTSYADSVKGRFTISRDNAKNTVYLQMNSLKPEDTAVYYCARRVSTRKRYYYWGQGTQVTVSS | high polyreactivity
31 | QVQLVESGGGLVQAGGSLRLSCAASGIIFYPYAMGWYRQAPGKERELVAAISTSGGRTYYADSVKGRFTISRDNAKNTVYLQMNSLKPEDTAVYYCAADNSSGDVNGGGYWGQGTQVTVSS | low polyreactivity
32 | QVQLVESGGGLVQAGGSLRLSCAASGIIFYRYAMGWYRQAPGKEREFVAAISWSGGSTTYADSVKGRFTISRDNAKNTVYLQMNSLKPEDTAVYYCNADRIYWSLWGPAYDYWGQGTQVTVSS | high polyreactivity
33 | QVQLVESGGGLVQAGGSLRLSCAASGIIFYRYAMGWYRQAPGKERELVAAITWRGGSTYYADSVKGRFTISRDNAMNTVYLQMNSLKPEDTAVYYCAARRRATYELDYWGQGTQVNVSS | high polyreactivity
34 | QVQLVESGGGLVQAGGSLRLSCAASGIIFYRYTKGWSRQAPGKETELVAGITRNGGSTYYADSVKGRFTISRVNAKNPVYLQMNSLKPEDTAVYYCATTLKFYWAKLDYRGQGTQVTVSS | low polyreactivity
35 | QVQLVESGGGLVQAGGSLRLSCAASGIIFYSYAMGWYRPAPGKERELVAAISTGSSTNYADSVKGRFTISRDNAKNTVYLQMNSLKPEDTAVYYCAKSTAVKPYAYRESGFIYDYWGQGTQVTVSS | low polyreactivity
36 | QVQLVESGGGLVQAGGSLRLSCAASGIIFYTYAMGWYRQAPGKERELVAAISRSGVRTYYADSVKGRFTISRDNAKNTVYLQMNSLKPEDTAVYYCAVDKGITQGLYDYWGQGTQVTVSS | high polyreactivity
37 | QVQLVESGGGLVQAGGSLRLSCAASGIIFYTYVMGWYRQAPGKEREFVAGISTSGGRTDYADSVKGRFTISRDNAKNTVYLQMNSLKPEDTAVYYCNADYWQWYSYWYDYWGQGTQVTVSS | high polyreactivity
38 | QVQLVESGGGLVQAGGSLRLSCAASGIIFYTYVMGWYRQAPGKEREFVAGISTSGGRTDYADSVKGRFTISRDNAKNTVYLQMNSLKPEDTAVYYCNKLYRYPRYYYWGQGTQVTVSS | high polyreactivity
39 | QVQLVESGGGLVQAGGSLRLSCAASGIIFYVNDMGWYRQAPGKERELVADISGGTSTNYADSVKGRFTISRDNAKNTVYLQMNSLKPEDTAVYYCATAFIVPFPGSDYWGQGTQVTVSS | low polyreactivity
40 | QVQLVESGGGLVQAGGSLRLSCAASGIIFYVYAMGWYRQAPGKERELVAAISDTAGDTYYADSVKGRFTISRDNAKNTVYLQMNSLKPEDTAVSYCAADYYPLVGYWGQGTQVTVSS | low polyreactivity
41 | QVQLVESGGGLVQAGGSLRLSCAASGIIFYVYAMGWYRQAPGKERELVAAISTSGGSTYYADSVKGRFTISRDNAKNTVYLQMNSLKPEDTAVYYCAADRPARSPKGSVDYWGQGTQVTVSS | high polyreactivity
42 | QVQLVESGGGLVQAGGSLRLSCAASGIIFYYNAMGWYRQAPGKERELVAAISWSGGSTYYADSVKGRFTISRDNAKNTVYLQMNSLKPEDTAVYYCNAVRSTSYGSYNYWGQGTQVTVSS | low polyreactivity
43 | QVQLVESGGGLVQAGGSLRLSCAASGIIFYYNAMGWYRQAPGKERELVAAISWSGGSTYYADSVKGRFTISRDYAKNSVYLQMNSLKTEDTAVYYCAADYYWRVHYGYWGQGTQVTVSS | high polyreactivity

From the nanobody polyreactivity screen of Harvey et al. (2022)
